These results are taken from patent US11319552B2, “Methods for improving transformation frequency” (SYNGENTA PARTICIPATIONS AG, priority 2016, dated 2022).

In data set [1] the test system is immature embryos. Kind of data set: Second selection experiment, transformation frequency with 40 mg/L ammonium glufosinate or 5 mg/L bialaphos. The format is cell-based, maize. Here is the method: 10 mg/L to 40 mg/L of ammonium glufosinate all had survivor transgenic plant candidates for the binary vector comprising PAT variant type 3b. […] A second experiment was performed using 40 mg/L ammonium glufosinate, or using the GS inhibitor bialaphos at 5 mg/L. For this experiment, following transformation the immature embryos were selected, plants were regenerated and rooted, and transgenic plants were identified so that transformation frequency could be calculated.

For data set [2], the system named is immature embryos. The data set can be described thus: Kill curve, ammonium glufosinate concentration for selection, survival percentage. It is filed as cell-based, maize. The settings on record: for % Survival: plants that rooted over immature embryos transformed. The procedure: The expression cassette of PAT variant type 3b (SEQ ID NO: 13) was introduced into a binary vector, now referred to as 23419. Binary vector 18857 (described in Table 2), which expresses cPAT-09, was used as a control. […] For vector 23419, 75-86 immature embryos were transformed using Agrobacteria similar to the method described in Example 4. Selection was performed using 10-80 mg/L of ammonium glufosinate (Ignite®). Following selection, plantlets were regenerated and then transferred to rooting media. The survival percentage (%) is shown as the number of plants that rooted over the number of immature embryos initially transformed.

B1: cPAT-09: control PAT DNA sequence codon optimized to Arabidopsis thaliana (SEQ ID NO: 21); tested here in binary vector 18857 (nucleic acid)
DNA: ATGTCTCCGGAGAGGAGACCAGTTGAGATTAGGCCAGCTACAGCAGCTGATATGGCCGCGGTTTGTGATATCGTTAACCATTACATTGAGACGTCTACAGTGAACTTTAGGACAGAGCCACAAACACCACAAGAGTGGATTGATGATCTAGAGAGGTTGCAAGATAGATACCCTTGGTTGGTTGCTGAGGTTGAGGGTGTTGTGGCTGGTATTGCTTACGCTGGGCCCTGGAAGGCTAGGAACGCTTACGATTGGACAGTTGAGAGTACTGTTTACGTGTCACATAGGCATCAAAGGTTGGGCCTAGGCTCCACATTGTACACACATTTGCTTAAGTCTATGGAGGCGCAAGGTTTTAAGTCAGTGGTTGCTGTTATAGGCCTTCCAAACGATCCATCTGTTAGGTTGCATGAGGCTCTAGGATACACAGCGCGGGGTACACTGCGCGCAGCTGGATACAAGCATGGTGGATGGCATGATGTTGGTTTTTGGCAAAGGGATTTTGAGTTGCCAGCTCCTCCAAGGCCAGTGAGGCCAGTTACCCAGATCTGA
modifications: derived from Streptomyces viridochromogenes
Regarding B1, the “Total # Events” value stood at 7 with immature embryos [1] (5 mg/L Bialaphos) and 5 in the data set with immature embryos [1] (40 mg/L ammonium glufosinate). Moreover, the “Transformation frequency % (TF)” value in the data set with immature embryos [1] (5 mg/L Bialaphos) came out at 0.875%; in the data set on immature embryos [1] (40 mg/L ammonium glufosinate), 0.625%. Besides, the “% Survival” value with immature embryos [2] (10 mg/L ammonium glufosinate) is given as 1.3%; in the data set on immature embryos [2] (20 mg/L ammonium glufosinate) it was 1.3%; in the data set on immature embryos [2] (40 mg/L ammonium glufosinate), 0%; with immature embryos [2] (80 mg/L ammonium glufosinate) it was 0%. In addition, the “survival of selection (in words)” value with immature embryos [2] (40 mg/L ammonium glufosinate) is reported as “did not survive selection”.
